Here are results for 22 molecules from US20220098591, “STEM-LOOP COMPOSITIONS AND METHODS FOR INHIBITING VASCULAR ENDOTHELIAL GROWTN FACTOR” (DRIVE THERAPEUTICS LLC, published 2022).

The target in data set [1] is T1, VEGF-A121 (Homo sapiens, UniProt P15692 SEQ:1-121). Put plainly: competition; TR-FRET. Conditions: tags: glycan-biotinylated for SPR/FRET/AlphaLISA; Acro BioSystems, Biolegend; chain copies: 2 (stated). How it is done: (§1) Briefly, for competition TR-FRET, 2-fold dilutions of thermally equilibrated aptamers were made in TR-FRET Buffer (50 mM MOPS, pH 7.4, 125 mM NaCl, 5 mM KCl, 50 μM CHAPS, 0.1 mg/mL BSA, 1 mM CaCl₂, and 1 mM MgCl₂). 5 μL of aptamer or control solution was added to a 15 μL mix of glycan biotinylated […] (5 nM final), ALEXA FLUOR® 647-labeled Aptamer (30 nM final), and Streptavidin-Eu (Perkin Elmer; 2.5 nM final) in a black wall low volume 384 well plate (Greiner). For control, 5 μl of 1000-fold excess of unlabeled parent aptamer or 5 μl TR-FRET buffer alone was added to the mix of ALEXA FLUOR® 647-labeled aptamer, biotin-VEGF-A, and Streptavidin-Eu. The plate was covered with a plate seal and subsequently incubated in the dark for 1 hour at room temperature. The plate was read on a Biotek CYTATION™ 5 plate reader. Samples were excited at 330 nm and fluorescent values were collected at 665 nm. Data analysis was performed by subtracting the background value and plotting as percent inhibition, normalized to baseline in the absence of competitor. The values were fit by [Inhibitor] vs. response-Variable slope (four parameters) using GraphPad Prism Version 7.0 and then normalized to aptamer control to obtain an IC₅₀ relative to parent aptamer. Data is presented as log values of relative IC₅₀.
Activity of each of these variants were tested using a time resolved competition TR-FRET assay, as described in Example 7, in which a labeled parent was competed with increasing concentrations of unlabeled variants for binding to VEGF-A₁₂₁.
(In TR-FRET formats the signal depends on donor and acceptor labels being close together.)

Data set [2] deals with T1, VEGF-A121. The data set can be described thus: competition; TR-FRET. As to conditions: tags: glycan-biotinylated for SPR/FRET/AlphaLISA; Acro BioSystems, Biolegend; chain copies: 2 (stated). How it is done:
as §1
The source holds these as a separate data set.

On to AGGCCGCCUCCGCGCGGAGGAGUUUCAUUACUCCGUUUGGCGGCUU (ssRNA, all G 2'-F; A,C,U 2'-OMe; 5' C6NH2; 3' idT) [Aptamer 131], for which the binding signal with VEGF-A121 [1] is > 100 fold worse IC50 vs Aptamer 26. On to AGGCCGCCUCCGCGAGGAGGGGUUUCAUUAUCCCGUUUGGCGGCUU (ssRNA, all G 2'-F; A,C,U 2'-OMe; 5' C6NH2; 3' idT) [Aptamer 158], for which the binding signal with VEGF-A121 [1] was > 100 fold worse IC50 vs Aptamer 26. AGGCCGCCUCCGCGCGGACGGGUUUCAUUAUCCGGUUUGGCGGCUU (ssRNA, all G 2'-F; A,C,U 2'-OMe; 5' C6NH2; 3' idT) [Aptamer 114]: the binding signal with VEGF-A121 [1] was > 100 fold worse IC50 vs Aptamer 26. As for AGGCCGCCUCCGCGCGGAUGGGUUUCAUUAUCCAGUUUGGCGGCUU (ssRNA, all G 2'-F; A,C,U 2'-OMe; 5' C6NH2; 3' idT) [Aptamer 113], the binding signal in the data set with VEGF-A121 [1] is > 100 fold worse IC50 vs Aptamer 26. For AGGCCGCCUCCGCGCGGAGGGCUUUCAUUAGCCCGUUUGGCGGCUU (ssRNA, all G 2'-F; A,C,U 2'-OMe; 5' C6NH2; 3' idT) [Aptamer 127], the binding signal with VEGF-A121 [1] is > 100 fold worse IC50 vs Aptamer 26. The same measure, in the same setting: then AGGCCGCCUCCGCCCGGAGGGGUUUCAUUAUCCCGUUUGGCGGCUU (ssRNA, all G 2'-F; A,C,U 2'-OMe; 5' C6NH2; 3' idT) [Aptamer 156], with > 100 fold worse IC50 vs Aptamer 26. Regarding AGGCCGUCUCCGCGCGGAGGGGUUUCAUUAUCCCGUUUGACGGCUU (ssRNA, all G 2'-F; A,C,U 2'-OMe; 5' C6NH2; 3' idT) [Aptamer 126], the binding result in the data set with VEGF-A121 [1] is “binds”.

For AGGCCGCCUCCGCGCGGAGGCGUUUCAUUACGCCGUUUGGCGGCUU (ssRNA, all G 2'-F; A,C,U 2'-OMe; 5' C6NH2; 3' idT) [Aptamer 132], the binding signal with VEGF-A121 [1] is > 100 fold worse IC50 vs Aptamer 26. Turning to AGGCCGCCUCCGCGCGGAGGGGUUUCAUUAUCCCGCUUGGCGGCUU (ssRNA, all G 2'-F; A,C,U 2'-OMe; 5' C6NH2; 3' idT) [Aptamer 166], in the data set with VEGF-A121 [1], the binding result is given as “binds”. Consider AGGCCGCCUCCGCGCGGAGGGGUUUCAUUAUCCCUUUUGGCGGCUU (ssRNA, all G 2'-F; A,C,U 2'-OMe; 5' C6NH2; 3' idT) [Aptamer 164], for which the binding signal with VEGF-A121 [1] was > 100 fold worse IC50 vs Aptamer 26. The same measure, in the same setting: then AGGCCGCCUCCCCGCGGAGGGGUUUCAUUAUCCCGUUUGGCGGCUU (ssRNA, all G 2'-F; A,C,U 2'-OMe; 5' C6NH2; 3' idT) [Aptamer 150], with > 100 fold worse IC50 vs Aptamer 26; and AGGCCGCCUCCGCGCGGCGGGGUUUCAUUAUCCCGUUUGGCGGCUU (ssRNA, all G 2'-F; A,C,U 2'-OMe; 5' C6NH2; 3' idT) [Aptamer 161], with > 100 fold worse IC50 vs Aptamer 26; and AGGCCGCCUCCGCGCGGAGGGGUUUCAUUAUCCCCUUUGGCGGCUU (ssRNA, all G 2'-F; A,C,U 2'-OMe; 5' C6NH2; 3' idT) [Aptamer 163], with > 100 fold worse IC50 vs Aptamer 26. On to AGGCCGCCACCGCGCGGAGGGGUUUCAUUAUCCCGUUUGGCGGCUU (ssRNA, all G 2'-F; A,C,U 2'-OMe; 5' C6NH2; 3' idT) [Aptamer 146], for which, in the data set with VEGF-A121 [1], the binding signal is ~3 fold better IC50 vs Aptamer 26. On the same count and under the same terms, in the case of AGGCCGCCUCCGCGCGGAAGGGUUUCAUUAUCCUGUUUGGCGGCUU (ssRNA, all G 2'-F; A,C,U 2'-OMe; 5' C6NH2; 3' idT) [Aptamer 112] it was > 100 fold worse IC50 vs Aptamer 26. As to AGGCCGCCUCCGCGUGGAGGGGUUUCAUUAUCCCGUUUGGCGGCUU (ssRNA, all G 2'-F; A,C,U 2'-OMe; 5' C6NH2; 3' idT) [Aptamer 160], in the data set with VEGF-A121 [1], the binding signal was > 100 fold worse IC50 vs Aptamer 26.

Take AGGCCGCCGCCGCGCGGAGGGGUUUCAUUAUCCCGUUUGGCGGCUU (ssRNA, all G 2'-F; A,C,U 2'-OMe; 5' C6NH2; 3' idT) [Aptamer 148]: the binding result with VEGF-A121 [1] is “binds”.

For the molecule AGGCCGCCUCAGCGCUGAGGGGUUUCAUUAUCCCGUUUGGCGGCUU (ssRNA, all G 2'-F; A,C,U 2'-OMe; 5' C6NH2; 3' idT) [Aptamer 178], the binding result in the data set with VEGF-A121 [1] is “binds”. In the case of AGGCCGCCUCCGCGCGGAGGUGUUUCAUUACACCGUUUGGCGGCUU (ssRNA, all G 2'-F; A,C,U 2'-OMe; 5' C6NH2; 3' idT) [Aptamer 130], the binding signal with VEGF-A121 [1] was > 100 fold worse IC50 vs Aptamer 26. With AGGCCGCCUCCGCGCGGAGGGGUUCAUUAUCCCGUUUGGCGGCUU (ssRNA, all G 2'-F; A,C,U 2'-OMe; Sp3 joins the two parts; 5' C6NH2; 3' idT) [Aptamer 63], in the data set with VEGF-A121 [2], the binding result is recorded as “binds”. Same read-out and setting: in the case of AGGCCGCCUCCGCGCGGAGGGGUUUCUUAUCCCGUUUGGCGGCUU (ssRNA, all G 2'-F; A,C,U 2'-OMe; Sp3 joins the two parts; 5' C6NH2; 3' idT) [Aptamer 65] it was “binds”.

Consider AGGCCGCCUCCGCGCGGAGGGGUUCAUUUCCCGUUUGGCGGCUU (ssRNA, all G 2'-F; A,C,U 2'-OMe; 5' C6NH2; 3' idT) [Aptamer 108], for which the binding signal in the data set with VEGF-A121 [1] is > 100 fold worse IC50 vs Aptamer 26.
